Reference: patent US20230212288A1 (published 2023)

Assays:
[1] = target: T1, human CD3 receptor complex (human, UniProt P07766 23-207; P09693 23-182; P04234 22-171); assay: cell-based or functional assay
[2] = target: T1, human CD3 receptor complex; assay: cell-based or functional assay; remark: listed apart in the source
[3] = target: T1, human CD3 receptor complex; assay: flow cytometry on HUT78 cells (CD3-positive), FITC anti-human IgG detection
Description: (§1) Cell suspensions of CD19-positive cell lines (NALM6 (ATCC® CRL-3273™), Toledo (ATCC® CRL-2631™), Namalwa (ATCC® CRL-1432™), Daudi (ATCC® CCL-213™), Ramos (RA 1) (ATCC® CRL-1596™), Raji (ATCC® CCL-86™)) and CD3-positive cell lines (HuT78 (ATCC® TIB-161™), CCRF-CEM (ATCC® CCL-119™), Jurkat (ATCC® TIB-152™)) with the concentration of 2*10⁶ cells/mL were introduced by 30 μL into a 96-well plate with a V-shaped bottom (Corning Inc, Cat. No. 3894). […] When the incubation was over, the cells were twice washed with the FACS buffer and deposited by centrifuging at 1000 rpM and (4±2°) C. 30 μL of a solution of FITC-tagged antibodies directed against human IgG (Donkey F(ab)₂ Anti-Human IgG, Abcam, Cat. No. Ab102437) diluted in the 1:200 ratio were added into each well to the deposited cells, and incubated on ice in the dark for 30 minutes, followed by triple washing with the FACS buffer. Then the cells were fixed by re-suspending the cell deposit in each well in 150 μL of the FIX-buffer (phosphate buffered saline with 1%-solution of formalin). Cell fluorescence intensity in the FITC-channel was measured with the use of the Canto II cytometer.

[4] = target: T1, human CD3 receptor complex; assay: flow cytometry on Jurkat cells (CD3-positive), FITC anti-human IgG detection
Description: as §1

[5] = target: T1, human CD3 receptor complex; assay: flow cytometry on CCRF-CEM cells (CD3-positive), FITC anti-human IgG detection
Description: as §1

[6] = target: T1, human CD3 receptor complex; assay: flow cytometry on PBMCs of donor; competition of titrated BSAB with 100 nM biotin-conjugated BSAB, PE-streptavidin detection
Description: (§2) The blood was diluted with the same volume of the phosphate buffered saline (ECO-Servis, Cat. No. B-60201), layered above Ficoll density gradient (ρ=1.077 g/cm³) (“Pan-Eco”, Cat. No. P052) and centrifuged at 800 g and 20±2° C. for 30 minutes. PBMCs were collected at the phase boundary and washed twice with an isotonic phosphate buffered saline. A cell deposit was re-suspended in 15 mL of the DMEM/F12 medium (Sigma, Cat. No. D8900-10L) with 10% fetal bovine serum (GE Healthcare, Cat. No. SV30160) and incubated in a cultural vial (SPL Life Sciences Co, Cat. No. 70075) for attaching monocytes at 37±2° C. for 4 hours. Upon incubation, unattached cells were collected, a cell suspension was centrifuged, a cell deposit was re-suspended in the FACS buffer with a 1:100 Fc Blook solution (BD Pharmingen™, Cat. No. 564220) for inhibiting non-specific binding of Fc-receptors exposed on B-cell membranes. The prepared PBMC suspension with the cell concentration of 4*10⁶/mL was introduced by 50 μL (2*10⁵ cells per well) into a 96-well plate with a V-shaped bottom (Corning Inc, Cat. No. 3894).
(§3) Then a solution of biotin-conjugated BSAB with the concentration of 300 nM was prepared and introduced into wells with cells by 50 μL (preparation final concentration being 100 nM). […] Cell fluorescence intensity in the PE-channel was measured with the use of the Canto II cytometer. […]

[7] = target: T1, human CD3 receptor complex; assay: flow cytometry on PBMCs of donor beta; competition of titrated BSAB with 100 nM biotin-conjugated BSAB, PE-streptavidin detection
Description: as §2, §3

[8] = target: T1, human CD3 receptor complex; assay: flow cytometry on PBMCs of donor alpha; competition of titrated BSAB with 100 nM biotin-conjugated BSAB, PE-streptavidin detection
Description: as §2, §3

T1 sequence (P07766 23-207, chain 1 of 3): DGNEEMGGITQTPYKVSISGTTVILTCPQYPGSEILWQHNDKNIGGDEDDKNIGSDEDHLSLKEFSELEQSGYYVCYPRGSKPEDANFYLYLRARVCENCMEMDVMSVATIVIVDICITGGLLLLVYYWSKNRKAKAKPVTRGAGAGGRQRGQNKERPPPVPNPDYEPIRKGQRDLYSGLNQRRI
T1 sequence (P09693 23-182, chain 2 of 3): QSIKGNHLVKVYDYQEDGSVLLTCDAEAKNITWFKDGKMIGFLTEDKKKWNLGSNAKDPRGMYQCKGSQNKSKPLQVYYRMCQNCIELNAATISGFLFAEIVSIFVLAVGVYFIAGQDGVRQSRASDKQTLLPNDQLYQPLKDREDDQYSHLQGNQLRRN
T1 sequence (P04234 22-171, chain 3 of 3): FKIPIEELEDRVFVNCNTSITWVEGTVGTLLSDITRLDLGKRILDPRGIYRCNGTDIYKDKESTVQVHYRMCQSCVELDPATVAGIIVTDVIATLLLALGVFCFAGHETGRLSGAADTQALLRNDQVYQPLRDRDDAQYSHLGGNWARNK

B1: 309_02_A08 BSAB clone (bispecific antibody)
chain: DIQLTQTPASLAVSLGQRATISCKASQSVDYDGDSYLNWYQQIPGQPPKLLIYDASNLVSGIPPRFSGSGSGTDFTLNIHPVEKVDAATYHCQQSTEDPWTFGGGTKLEIKGGSGGAMAQVQLVQSGAEVKKPGASVKVSCKASGYTFTGYYMHWVRQAPGQGLEWMGIINPSGGSTSYAQKFQGRVTMTRDTSTSTVYMELSSLRSEDTAVYYCARTGKNYYYYGMDAWGQGTTVTVSSGGGGSGGGGSGGGASNFMLTQPHSVSESPGKTVTISCTRSSGSIARNYVQWYQQRPGSSPTTVIYEDNQRPSGVPDRFSASIDSSSNSASLTISGLQTEDEADYYCQSYDTSNHVVFGGGTKLTVLGQPAAAGGGGSQVQLQQSGAELVRPGSSVKISCKASGYAFSSYWMNWVKQRPGQGLEWIGQIWPGDGDTNYNGKFKGKATLTADESSSTAYMQLSSLASEDSAVYFCARRETTTVGRYYYAMDYWGQGTSVTVSSASAAVECPPCPAPPVAGPSVFLFPPKPKDTLMISRTPEVTCVVVDVSHEDPEVQFNWYVDGVEVHNAKTKPREEQFNSTFRVVSVLTVVHQDWLNGKEYKCKVSNKGLPAPIEKTISKTKGQPREPQVYTLPPSREEMTKNQVSLTCLVKGFYPSDIAVEWESNGQPENNYKTTPPMLDSDGSFFLYSKLTVDKSRWQQGNVFSCSVMHEALHNHYTQKSLSLSPGK
notes: described order VL CD3-VH CD19-VL CD19-VH CD3 with hinge and IgG2 Fc; the tie is not explicit; also called BSAB preparation
EC50 of chemiluminescence signal, Raji cells with Jurkat-Luc-NFAT reporter cells [1]: 0.0023 nM | Activity (EC50 for activation of Jurkat line cells, pM) [2]: 2.2 pM | EC50 [3]: 1.2 nM | EC50 [4]: 0.37 nM | EC50 [5]: 0.4 nM | IC50 [6]: 62.3 nM | IC50 [7]: 66.5 nM | IC50 [8]: 52.1 nM

B2: 309_02_F01 (bispecific antibody)
chain: DIQLTQTPASLAVSLGQRATISCKASQSVDYDGDSYLNWYQQIPGQPPKLLIYDASNLVSGIPPRFSGSGSGTDFTLNIHPVEKVDAATYHCQQSTEDPWTFGGGTKLEIKGGSGGAMAEVQLVQSGAEVKKPGASVKVSCKASGYTFTGYYMHWVRQAPGQGLEWMGWINPNSGGTNYAQKFQGRVTMTRDTSISTAYMELSSLRSEDTAVYYCARDKRYSSGWYENWGQGTLVTVSSGGGGSGGGGSGGGASNFMLTQPHSVSESPGKTVTISCTRSSGSIASKYVQWYQQRPGSSPTTVIYEDNQRPSGVPDRFSGSIDISSNSASLTISGLKTEDEADYFCQSYDSSSVIFGGGTKLTVLGQPAAAGGGGSQVQLQQSGAELVRPGSSVKISCKASGYAFSSYWMNWVKQRPGQGLEWIGQIWPGDGDTNYNGKFKGKATLTADESSSTAYMQLSSLASEDSAVYFCARRETTTVGRYYYAMDYWGQGTSVTVSSASAAVECPPCPAPPVAGPSVFLFPPKPKDTLMISRTPEVTCVVVDVSHEDPEVQFNWYVDGVEVHNAKTKPREEQFNSTFRVVSVLTVVHQDWLNGKEYKCKVSNKGLPAPIEKTISKTKGQPREPQVYTLPPSREEMTKNQVSLTCLVKGFYPSDIAVEWESNGQPENNYKTTPPMLDSDGSFFLYSKLTVDKSRWQQGNVFSCSVMHEALHNHYTQKSLSLSPGK
Activity (EC50 for activation of Jurkat line cells, pM) [2]: 32.2 pM

B3: 309_04_A04 (bispecific antibody)
chain: DIQLTQTPASLAVSLGQRATISCKASQSVDYDGDSYLNWYQQIPGQPPKLLIYDASNLVSGIPPRFSGSGSGTDFTLNIHPVEKVDAATYHCQQSTEDPWTFGGGTKLEIKGGSGGAMAQVQLQQWGAGLLKPSETLSLTCAVYGGSFSGYYWSWIRQPPGKGLEWIGEISRSGTTNYNSSLKSRVTISVDTSKNQFSLKLSSVTAADTAVYYCARATRNGVFDYWGQGTLVTVSSGGGGSGGGGSGGGASNFMLTQPHSVSESPGKTVTISCTRSSGSIASNYVQWYQQRPGSAPSTVIYEDNQRPSGVPDRFSGSIDSSSNSASLTISGLKTEDEADYYCQSYDSGVVFGGGTKLTVLGQPAAAGGGGSQVQLQQSGAELVRPGSSVKISCKASGYAFSSYWMNWVKQRPGQGLEWIGQIWPGDGDTNYNGKFKGKATLTADESSSTAYMQLSSLASEDSAVYFCARRETTTVGRYYYAMDYWGQGTSVTVSSASAAVECPPCPAPPVAGPSVFLFPPKPKDTLMISRTPEVTCVVVDVSHEDPEVQFNWYVDGVEVHNAKTKPREEQFNSTFRVVSVLTVVHQDWLNGKEYKCKVSNKGLPAPIEKTISKTKGQPREPQVYTLPPSREEMTKNQVSLTCLVKGFYPSDIAVEWESNGQPENNYKTTPPMLDSDGSFFLYSKLTVDKSRWQQGNVFSCSVMHEALHNHYTQKSLSLSPGK
Activity (EC50 for activation of Jurkat line cells, pM) [2]: 3.7 pM

B4: 400_01_D06 (bispecific antibody)
chain: DIQLTQTPASLAVSLGQRATISCKASQSVDYDGDSYLNWYQQIPGQPPKLLIYDASNLVSGIPPRFSGSGSGTDFTLNIHPVEKVDAATYHCQQSTEDPWTFGGGTKLEIKGGSGGAMAQVQLVQSGAEVKKPGSSVKVSCKASGGTFSSYAISWVRQAPGQGLEWMGGIIPIFGTANYAQKFQGRVTITADESTSTAYMEVRSLRSDDTAVYYCVRDRGDYGDITYFDYWGQGTLVTVSSGGGGSGGGGSGGGASNFMLTQPHSVSESPGKTVTISCTGSSGSIASNYVQWYQQRPGSAPTIVIYEDNHRPSGVPDRFSGSIDSSSNSASLTISGLKTEDEADYYCQSYDSSDRVVFGGGTKVTVLGQPAAAGGGGSQVQLQQSGAELVRPGSSVKISCKASGYAFSSYWMNWVKQRPGQGLEWIGQIWPGDGDTNYNGKFKGKATLTADESSSTAYMQLSSLASEDSAVYFCARRETTTVGRYYYAMDYWGQGTSVTVSSASAAVECPPCPAPPVAGPSVFLFPPKPKDTLMISRTPEVTCVVVDVSHEDPEVQFNWYVDGVEVHNAKTKPREEQFNSTFRVVSVLTVVHQDWLNGKEYKCKVSNKGLPAPIEKTISKTKGQPREPQVYTLPPSREEMTKNQVSLTCLVKGFYPSDIAVEWESNGQPENNYKTTPPMLDSDGSFFLYSKLTVDKSRWQQGNVFSCSVMHEALHNHYTQKSLSLSPGK
Activity (EC50 for activation of Jurkat line cells, pM) [2]: 17.5 pM

B5: 400_03_H07 (bispecific antibody)
chain: DIQLTQTPASLAVSLGQRATISCKASQSVDYDGDSYLNWYQQIPGQPPKLLIYDASNLVSGIPPRFSGSGSGTDFTLNIHPVEKVDAATYHCQQSTEDPWTFGGGTKLEIKGGSGGAMAQVQLVESGGGVVQPGRSLRLSCAASGFTFSSYSMNWVRQAPGKGLEWVSSISSSSSYIYYADSVKGRFTISRDNAKNSLYLQMNSLRAEDTAVYYCARSGIAAAGFDYWGQGTLVTVSSGGGGSGGGGSGGGASNFMLTQPHSVSESPGKTVTISCARSSGSIASNYVQWYQQRPGSSPTTVIYEDNRRPSGVPDRFSGSFDSSSNSASLTISGLKTEDEADYYCQSYDSSNRVFGGGTKLTVLGQPAAAGGGGSQVQLQQSGAELVRPGSSVKISCKASGYAFSSYWMNWVKQRPGQGLEWIGQIWPGDGDTNYNGKFKGKATLTADESSSTAYMQLSSLASEDSAVYFCARRETTTVGRYYYAMDYWGQGTSVTVSSASAAVECPPCPAPPVAGPSVFLFPPKPKDTLMISRTPEVTCVVVDVSHEDPEVQFNWYVDGVEVHNAKTKPREEQFNSTFRVVSVLTVVHQDWLNGKEYKCKVSNKGLPAPIEKTISKTKGQPREPQVYTLPPSREEMTKNQVSLTCLVKGFYPSDIAVEWESNGQPENNYKTTPPMLDSDGSFFLYSKLTVDKSRWQQGNVFSCSVMHEALHNHYTQKSLSLSPGK
Activity (EC50 for activation of Jurkat line cells, pM) [2]: 328 pM
